Literature values in publication PMC4652184.

Target: Slit2 (Homo sapiens) (UniProt O94813)
Sequence (O94813 31-1529): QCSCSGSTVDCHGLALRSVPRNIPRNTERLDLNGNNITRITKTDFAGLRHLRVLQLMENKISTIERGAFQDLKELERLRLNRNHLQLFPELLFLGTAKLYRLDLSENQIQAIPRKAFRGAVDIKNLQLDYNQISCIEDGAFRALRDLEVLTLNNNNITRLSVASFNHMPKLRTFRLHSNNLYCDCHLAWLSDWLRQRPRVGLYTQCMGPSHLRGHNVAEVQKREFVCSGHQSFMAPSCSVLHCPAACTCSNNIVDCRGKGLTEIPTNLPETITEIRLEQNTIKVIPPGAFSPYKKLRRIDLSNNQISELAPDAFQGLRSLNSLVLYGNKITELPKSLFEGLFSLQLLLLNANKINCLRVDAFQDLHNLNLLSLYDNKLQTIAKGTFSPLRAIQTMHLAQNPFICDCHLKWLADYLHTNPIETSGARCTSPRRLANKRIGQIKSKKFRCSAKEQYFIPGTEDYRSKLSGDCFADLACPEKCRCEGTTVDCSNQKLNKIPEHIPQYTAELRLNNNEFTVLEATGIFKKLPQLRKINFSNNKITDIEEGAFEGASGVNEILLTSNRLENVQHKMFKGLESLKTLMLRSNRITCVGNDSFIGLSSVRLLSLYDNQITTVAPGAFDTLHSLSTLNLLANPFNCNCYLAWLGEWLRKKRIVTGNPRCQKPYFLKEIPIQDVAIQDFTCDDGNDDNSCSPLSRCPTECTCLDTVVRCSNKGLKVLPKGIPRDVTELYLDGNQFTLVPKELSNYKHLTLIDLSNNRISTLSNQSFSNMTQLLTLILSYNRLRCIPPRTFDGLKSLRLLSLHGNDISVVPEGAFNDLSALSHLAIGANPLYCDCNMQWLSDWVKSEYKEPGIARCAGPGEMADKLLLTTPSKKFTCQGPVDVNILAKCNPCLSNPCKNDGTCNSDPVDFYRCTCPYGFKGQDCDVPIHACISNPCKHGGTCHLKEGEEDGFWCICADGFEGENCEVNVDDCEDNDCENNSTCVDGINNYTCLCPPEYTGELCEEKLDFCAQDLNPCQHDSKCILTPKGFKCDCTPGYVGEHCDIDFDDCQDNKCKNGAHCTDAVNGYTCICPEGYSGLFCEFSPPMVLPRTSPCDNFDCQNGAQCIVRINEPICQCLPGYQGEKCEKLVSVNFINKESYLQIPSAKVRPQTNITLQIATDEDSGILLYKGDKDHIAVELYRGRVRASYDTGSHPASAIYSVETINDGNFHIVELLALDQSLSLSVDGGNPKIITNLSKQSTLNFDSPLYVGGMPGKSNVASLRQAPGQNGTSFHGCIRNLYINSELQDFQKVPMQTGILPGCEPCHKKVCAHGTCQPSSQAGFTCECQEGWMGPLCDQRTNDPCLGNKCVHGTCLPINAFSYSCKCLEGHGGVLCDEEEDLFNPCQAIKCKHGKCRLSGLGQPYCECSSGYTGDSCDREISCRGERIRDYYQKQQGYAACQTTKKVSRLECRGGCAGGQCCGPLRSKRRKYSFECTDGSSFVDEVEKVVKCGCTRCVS

Chain of Robo1 (Q9Y6N7 26-897): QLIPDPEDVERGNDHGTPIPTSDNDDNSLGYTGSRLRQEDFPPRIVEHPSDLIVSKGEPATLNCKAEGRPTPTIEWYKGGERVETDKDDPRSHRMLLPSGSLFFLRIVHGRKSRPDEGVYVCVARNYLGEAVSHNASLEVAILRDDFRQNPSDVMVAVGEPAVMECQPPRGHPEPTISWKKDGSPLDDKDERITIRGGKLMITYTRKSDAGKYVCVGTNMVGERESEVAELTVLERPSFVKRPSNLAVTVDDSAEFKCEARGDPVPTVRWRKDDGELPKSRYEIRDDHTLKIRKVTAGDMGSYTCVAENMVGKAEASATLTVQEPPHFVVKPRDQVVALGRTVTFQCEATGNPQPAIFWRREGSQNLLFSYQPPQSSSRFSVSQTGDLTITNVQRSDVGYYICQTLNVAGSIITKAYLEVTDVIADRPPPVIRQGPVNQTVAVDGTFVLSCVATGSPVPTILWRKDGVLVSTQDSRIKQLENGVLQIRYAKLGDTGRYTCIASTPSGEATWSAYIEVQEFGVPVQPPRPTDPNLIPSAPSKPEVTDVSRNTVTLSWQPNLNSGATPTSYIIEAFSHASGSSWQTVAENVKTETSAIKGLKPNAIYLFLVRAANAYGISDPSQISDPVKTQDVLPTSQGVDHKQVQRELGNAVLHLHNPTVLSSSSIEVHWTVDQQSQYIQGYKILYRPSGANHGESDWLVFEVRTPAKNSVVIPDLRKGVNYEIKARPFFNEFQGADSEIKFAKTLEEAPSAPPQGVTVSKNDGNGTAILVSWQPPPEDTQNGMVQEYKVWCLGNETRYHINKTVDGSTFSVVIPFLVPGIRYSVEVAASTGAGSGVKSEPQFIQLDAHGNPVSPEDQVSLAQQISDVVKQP

Kd: 4.5 nM
Substance: Robo1 (from UniProt Q9Y6N7)
